Assay results reported in PMC12260418 (Proceedings of the National Academy of Sciences of the …, 2025).
Where no end group is shown, it is not given here.

B1: Recombinant TEAD1 (S210-D426) (domain or fragment)
chain: SIGTTKLRLVEFSAFLEQQRDPDSYNKHLFVHIGHANHSYSDPLLESVDIRQIYDKFPEKKGGLKELFGKGPQNAFFLVKFWADLNCNIQDDAGAFYGVTSQYESSENMTVTCSTKVCSFGKQVVEKVETEYARFENGRFVYRINRSPMCEYMINFIHKLKHLPEKYMMNSVLENFTILLVVTNRDTQETLLCMACVFEVSNSEHGAQHHIYRLVKD
B2: biotinylated WT VGLL4 peptide (residues 202-259) (peptide)
peptide: ATTCDPVVEEHFRRSLGKNYKEPEPAPNSVSITGSVDDHFAKALGDTWLQIKAAKDGA
modifications: also: biotinylated, position not given here

Legend:
TEAD1 = TEAD1 (Homo sapiens, UniProt P28347); assay: SPR of recombinant TEAD1 and VGLL4 peptide with compound; format: binding
[1] = target: B2; assay: SPR
[2] = target: B2; assay: SPR; remark: listed apart in the source
[3] = target: B1; assay: SPR

With GNE-7883 the “SPR of recombinant TEAD1 and VGLL4 peptide with compound; TEAD1 AP-MS in cells” value (TEAD1) was ~ 2 fold change in VGLL4-TEAD1 KD.

With B1 the “fold increase in affinity with VT-103 against DMSO” value [1] was ~12 fold and the “fold decrease of KD with GNE-7883 against DMSO” value [2] was ~2 fold.

With B2 the Kd [3] was ~0.5 µM.

B3: biotinylated VGLL4 peptide (residues 202-259), TDU1 mutant (peptide)
peptide: ATTCDPVVEEAARRSLGKNYKEPEPAPNSVSITGSVDDHFAKALGDTWLQIKAAKDGA
modifications: also: biotinylated, position not given here
B3: binds [3].
